Reference: patent publication US20140249091A1 (BIOUSIAN BIOSYSTEMS, published 2014)
Where two headings read alike, the source gives them in different places. Non-standard residues stand in square brackets, D forms with d. *: point of attachment. βGlc = OC[C@H]1O[C@@H](*)[C@H](O)[C@@H](O)[C@@H]1O; Nle = CCCC[C@H](N)C(=O)O; Nva = CCC[C@H](N)C(=O)O

What was measured:
[1] = target: T1, human mu opioid receptor (human, UniProt P35372 1-400); experiment: competition vs [3H]DAMGO, hMOR CHO cell membranes (summary table)
T1 construct: whole, on cells; Assayed as CHO cell membranes; also called hMOR; MOR
T1 sequence (P35372 whole entry): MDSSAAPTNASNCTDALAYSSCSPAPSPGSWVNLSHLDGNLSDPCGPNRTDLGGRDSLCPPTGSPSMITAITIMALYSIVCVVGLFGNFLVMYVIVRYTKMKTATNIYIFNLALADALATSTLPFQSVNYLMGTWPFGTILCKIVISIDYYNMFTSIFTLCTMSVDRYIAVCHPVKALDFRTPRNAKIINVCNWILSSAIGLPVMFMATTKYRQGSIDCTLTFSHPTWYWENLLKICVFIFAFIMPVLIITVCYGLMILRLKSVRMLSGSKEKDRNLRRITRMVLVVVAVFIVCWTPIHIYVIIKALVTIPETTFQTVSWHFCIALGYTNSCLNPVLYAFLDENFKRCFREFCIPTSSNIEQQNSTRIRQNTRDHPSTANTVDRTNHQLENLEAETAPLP

[2] = target: T2, human delta opioid receptor (human, UniProt P41143 1-372); experiment: cell-based or functional assay
T2 sequence (P41143 whole entry, stated change not applied): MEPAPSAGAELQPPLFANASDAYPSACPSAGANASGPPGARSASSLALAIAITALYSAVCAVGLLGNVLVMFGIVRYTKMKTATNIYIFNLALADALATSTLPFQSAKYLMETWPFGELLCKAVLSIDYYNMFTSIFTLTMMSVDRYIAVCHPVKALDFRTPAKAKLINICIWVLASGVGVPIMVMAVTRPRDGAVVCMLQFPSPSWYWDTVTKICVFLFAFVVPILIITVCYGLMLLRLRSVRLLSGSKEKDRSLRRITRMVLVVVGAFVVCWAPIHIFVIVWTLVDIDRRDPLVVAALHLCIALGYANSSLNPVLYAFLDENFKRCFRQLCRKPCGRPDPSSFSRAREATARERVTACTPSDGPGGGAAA

[3] = target: T1, human mu opioid receptor; experiment: cell-based or functional assay
[4] = target: T2, human delta opioid receptor; experiment: competition vs [3H]naltrindole, hDOR CHO cell membranes; reference DPDPE
[5] = target: T2, human delta opioid receptor; experiment: radioligand competition; reference hMOR
[6] = target: T1, human mu opioid receptor; experiment: competition vs 0.25 nM [3H]DAMGO, hMOR CHO cell membranes
[7] = target: T2, human delta opioid receptor; experiment: competition vs [3H]naltrindole, hDOR CHO cell membranes (summary table)
[8] = target: human kappa opioid receptor (human) (UniProt P41145); experiment: inhibition of [3H]U69,593 binding at 10 uM peptide, hKOR CHO cell membranes
human kappa opioid receptor (human), sequence (P41145 whole entry): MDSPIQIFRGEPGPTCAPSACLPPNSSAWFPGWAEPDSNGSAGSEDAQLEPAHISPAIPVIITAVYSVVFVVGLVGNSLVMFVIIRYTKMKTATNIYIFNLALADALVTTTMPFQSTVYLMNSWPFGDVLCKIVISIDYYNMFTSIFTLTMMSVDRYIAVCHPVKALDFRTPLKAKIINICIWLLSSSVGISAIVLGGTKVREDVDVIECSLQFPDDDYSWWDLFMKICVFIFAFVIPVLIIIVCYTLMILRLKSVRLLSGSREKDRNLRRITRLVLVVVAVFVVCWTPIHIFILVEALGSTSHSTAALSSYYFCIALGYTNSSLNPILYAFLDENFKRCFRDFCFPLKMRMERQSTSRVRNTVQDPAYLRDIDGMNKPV

[9] = target: T2, human delta opioid receptor; experiment: competition vs 0.2 nM [3H]naltrindole, hDOR CHO cell membranes
[10] = target: T2, human delta opioid receptor; experiment: as above; remark: listed apart in the source
[11] = target: human kappa opioid receptor (human) (UniProt P41145); experiment: inhibition of [3H]U69,593 binding at 10 uM peptide, hKOR CHO cell membranes; remark: listed apart in the source
[12] = target: T1, human mu opioid receptor; experiment: competition vs 0.25 nM [3H]DAMGO, hMOR CHO cell membranes; remark: listed apart in the source

DPDPE (peptide)
Ki [1]: 180 nM

11009 (H2N-YaFE-Nle-Nle-T-amide) (peptide)
EC50 (nM), agonist properties, [35S]GTPγS binding [2]: 12 nM | EMax (%), agonist properties, [35S]GTPγS binding [2]: 67% | EMax (%), agonist properties, [35S]GTPγS binding [3]: 42%

B1: 11008 = Deltorphin B4, H2N-YaFE-Nle-Nle-T(beta-D-Glc)-amide (peptide)
peptide: H-Y[dA]FE[Nle][Nle]T(βGlc)-NH2
SMILES: CCCC[C@H](NC(=O)[C@H](CCC(=O)O)NC(=O)[C@H](Cc1ccccc1)NC(=O)[C@@H](C)NC(=O)[C@@H](N)Cc1ccc(O)cc1)C(=O)N[C@@H](CCCC)C(=O)N[C@H](C(N)=O)[C@@H](C)O[C@@H]1O[C@H](CO)[C@@H](O)[C@H](O)[C@H]1O
EC50 (nM), agonist properties, [35S]GTPγS binding [2]: 12 nM | fold lower affinity than DPDPE [4]: ~3 fold | Selectivity Delta:Mu [5]: 79 fold (Ki mu over Ki delta) | Ki [1]: 1100 nM | IC50 [6]: 1500 nM | Ki [6]: 1100 nM | Ki [7]: 14 nM | Max Inhib at 10 uM (%) [8]: 2.9% | IC50 [9]: 42 nM | Ki [9]: 14 nM

B2: 11005 = Deltorphin B1, H2N-YaFE-Nva-Nva-S(beta-D-Glc)-amide (peptide)
peptide: H-Y[dA]FE[Nva][Nva]S(βGlc)-NH2
SMILES: CCC[C@H](NC(=O)[C@H](CCC)NC(=O)[C@H](CCC(=O)O)NC(=O)[C@H](Cc1ccccc1)NC(=O)[C@@H](C)NC(=O)[C@@H](N)Cc1ccc(O)cc1)C(=O)N[C@@H](CO[C@@H]1O[C@H](CO)[C@@H](O)[C@H](O)[C@H]1O)C(N)=O
notes: also called glycopeptide 11005
Selectivity Delta:Mu [5]: 36 fold (Ki mu over Ki delta) | Ki [1]: 710 nM | IC50 [10]: 61 nM | Ki [10]: 20 nM | Ki [7]: 20 nM | Max Inhib at 10 uM (%) [11]: 5.3% | IC50 [12]: 1000 nM | Ki [12]: 710 nM
